Data taken from paper PMC11372445 (Cell Reports, 2024).
One block for each binder: values may come before it.

What was measured:
[1] = target: the molecule itself; assay: crystal structure
[2] = target: M1-linked diubiquitin (UniProt P0CG47); assay: pull-down
[3] = target: NEMO UBAN (aa 257–364) (human, UniProt Q9Y6K9 257-364); assay: pull-down
[4] = target: M1-linked diubiquitin (UniProt P0CG47); assay: crystal structure
[5] = target: K6 diUb phosphorylated on S65 of the proximal Ub (UniProt P0CG47, K6R); assay: pull-down
[6] = target: K6 diUb phosphorylated on S65 of the distal Ub (UniProt P0CG47, K6R); assay: pull-down
[7] = target: K6 diUb phosphorylated on S65 of both Ub molecules (UniProt P0CG47, K6R); assay: pull-down

B1: OPTN UBAN (aa 419–512) C472S, S473E (domain or fragment)
chain: DRAVLKELSEKLELAEKALASKQLQMDEMKQTIAKQEEDLETMTILRAQMEVYSEDFHAERAAREKIHEEKEQLALQLAVLLKENDAFEDGGRQ
binding result [1]: binds

B2: NEMO UBAN (257–364) K285C/C347S chemically ubiquitinated on K285C with Ub G76C (other)
chain 1: GMQLEDLKQQLQQAEEALVAKQEVIDKLCEEAEQHKIVMETVPVLKAQADIYKADFQAERQAREKLAEKKELLQEQLEQLQREYSKLKASSQESARIEDMRKRHVEVS
chain 2: […]
binding result [2]: binds

B3: His6-SUMO-HOIP NZF1 (aa 351–379) (domain or fragment)
chain: RGRWACQSCTFENEAAAVLCSICERPRLA
binding result [3]: binds

Results, then the binder that gave them:

binding result [4]: binds
B4: HOIP NZF1 (aa 351–379), as crystallised (domain or fragment)
chain: RGRWACQSCTFENEAAAVLCSICERPRLA

binding result [5]: binds
binding result [6]: binds
binding result [7]: binds
B5: GST-tagged TAB2 NZF (aa 585–693) (domain or fragment)
chain: QIPSLEEMQQLRSCNRQLQIDIDCLTKEIDLFQARGPHFNPSAIHNFYDNIGFVGPVPPKPKDQRSIIKTPKTQDTEDDEGAQWNCTACTFLNHPALIRCEQCEMPRHF
